Residue numbers refer to the chain shown, from its start. Blank lines part the entries; values can stand above or below the binder they belong to.
Target: T1, CD3 epsilon homodimer protein (UniProt P07766 23-126)
T1 construct: also called CD3 (CD3 epsilon)
Assay: SPR Biacore T200, CD3e homodimer on chip, vs unaltered GLS3000 antibody

T1 sequence (P07766 23-126): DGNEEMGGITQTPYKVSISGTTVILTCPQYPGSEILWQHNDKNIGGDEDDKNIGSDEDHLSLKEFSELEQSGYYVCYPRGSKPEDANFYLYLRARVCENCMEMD

B1: GLS3000 R24G (antibody, name in Kabat numbering, V domains shown)
VH: QVQLVESGGGVVQPGRSLRLSCAASGFTFSNAWMHWVRQAPGKGLEWVAQIKAKSNNYATYYAESVKGRFTISRDDSKNSLYLQMNSLKTEDTAVYYCRYVHYGAYYGVDAWGQGTTVTVSS
VL: DIVMTQSPLSLPVTPGEPASISCGSSQSLVHSNRNTYLHWYQQKPGQAPRLLIYKVSNRFSGVPDRFSGSGSGTDFTLKISRVEAEDVGVYYCGQGTQVPYTFGQGTKLEIK
notes: one-arm IgG as m2
ratio of amounts bound (Z=Y/X): 0.89

B2: GLS3000 R54T (antibody, name in Kabat numbering, V domains shown)
VH: B1 VH
VL: B1 VL with G24R, R59T
notes: one-arm IgG as m2
ratio of amounts bound (Z=Y/X): 0.65

B5: GLS3000 R29T (antibody, name in Kabat numbering, V domains shown)
VH: B1 VH
VL: B1 VL with G24R, R34T
notes: one-arm IgG as m2
ratio of amounts bound (Z=Y/X): 0.63

B6: GLS3000 S25I (antibody, name in Kabat numbering, V domains shown)
VH: B1 VH
VL: B1 VL with G24R, S25I
notes: one-arm IgG as m2
ratio of amounts bound (Z=Y/X): 0.53

B11: GLS3000 S25L (antibody, name in Kabat numbering, V domains shown)
VH: B1 VH
VL: B1 VL with G24R, S25L
notes: one-arm IgG as m2
ratio of amounts bound (Z=Y/X): 0.24

B12: GLS3000 R77S (antibody, name in Kabat numbering, V domains shown)
VH: B1 VH
VL: B1 VL with G24R, R82S
notes: one-arm IgG as m2
ratio of amounts bound (Z=Y/X): 0.92

B14: GLS3000 S25D (antibody, name in Kabat numbering, V domains shown)
VH: B1 VH
VL: B1 VL with G24R, S25D
notes: one-arm IgG as m2
ratio of amounts bound (Z=Y/X): 0.18

B16: GLS3000 S26D (antibody, name in Kabat numbering, V domains shown)
VH: B1 VH
VL: B1 VL with G24R, S26D
notes: one-arm IgG as m2
ratio of amounts bound (Z=Y/X): 0.86

B18: GLS3000 R29D (antibody, name in Kabat numbering, V domains shown)
VH: B1 VH
VL: B1 VL with G24R, R34D
notes: one-arm IgG as m2
ratio of amounts bound (Z=Y/X): 0.41

B20: GLS3000 S25P (antibody, name in Kabat numbering, V domains shown)
VH: B1 VH
VL: B1 VL with G24R, S25P
notes: one-arm IgG as m2
ratio of amounts bound (Z=Y/X): 1.01

B21: GLS3000 R24S (antibody, name in Kabat numbering, V domains shown)
VH: B1 VH
VL: B1 VL with G24S
notes: one-arm IgG as m2
ratio of amounts bound (Z=Y/X): 0.89

B22: GLS3000 S27aY (antibody, name in Kabat numbering, V domains shown)
VH: B1 VH
VL: B1 VL with G24R, S28Y
notes: one-arm IgG as m2
ratio of amounts bound (Z=Y/X): 1.1

B23: GLS3000 R54D (antibody, name in Kabat numbering, V domains shown)
VH: B1 VH
VL: B1 VL with G24R, R59D
notes: one-arm IgG as m2
ratio of amounts bound (Z=Y/X): 0.36

B25: GLS3000 R24Y (antibody, name in Kabat numbering, V domains shown)
VH: B1 VH
VL: B1 VL with G24Y
notes: one-arm IgG as m2
ratio of amounts bound (Z=Y/X): 0.87

B26: GLS3000 S25T (antibody, name in Kabat numbering, V domains shown)
VH: B1 VH
VL: B1 VL with G24R, S25T
notes: one-arm IgG as m2
ratio of amounts bound (Z=Y/X): 0.83

B27: GLS3000 R54Q (antibody, name in Kabat numbering, V domains shown)
VH: B1 VH
VL: B1 VL with G24R, R59Q
notes: one-arm IgG as m2
ratio of amounts bound (Z=Y/X): 0.68

B28: GLS3000 S26P (antibody, name in Kabat numbering, V domains shown)
VH: B1 VH
VL: B1 VL with G24R, S26P
notes: one-arm IgG as m2
ratio of amounts bound (Z=Y/X): 0.78

B29: GLS3000 R29L (antibody, name in Kabat numbering, V domains shown)
VH: B1 VH
VL: B1 VL with G24R, R34L
notes: one-arm IgG as m2
ratio of amounts bound (Z=Y/X): 0.56

B30: GLS3000 S25V (antibody, name in Kabat numbering, V domains shown)
VH: B1 VH
VL: B1 VL with G24R, S25V
notes: one-arm IgG as m2
ratio of amounts bound (Z=Y/X): 0.73

B31: GLS3000 R24Q (antibody, name in Kabat numbering, V domains shown)
VH: B1 VH
VL: B1 VL with G24Q
notes: one-arm IgG as m2
ratio of amounts bound (Z=Y/X): 0.9

B32: GLS3000 R24P (antibody, name in Kabat numbering, V domains shown)
VH: B1 VH
VL: B1 VL with G24P
notes: one-arm IgG as m2
ratio of amounts bound (Z=Y/X): 0.7

B33: GLS3000 S25M (antibody, name in Kabat numbering, V domains shown)
VH: B1 VH
VL: B1 VL with G24R, S25M
notes: one-arm IgG as m2
ratio of amounts bound (Z=Y/X): 0.31

B34: GLS3000 S27aE (antibody, name in Kabat numbering, V domains shown)
VH: B1 VH
VL: B1 VL with G24R, S28E
notes: one-arm IgG as m2
ratio of amounts bound (Z=Y/X): 0.81

B35: GLS3000 R29G (antibody, name in Kabat numbering, V domains shown)
VH: B1 VH
VL: B1 VL with G24R, R34G
notes: one-arm IgG as m2
ratio of amounts bound (Z=Y/X): 0.67

B38: GLS3000 S25A (antibody, name in Kabat numbering, V domains shown)
VH: B1 VH
VL: B1 VL with G24R, S25A
notes: one-arm IgG as m2
ratio of amounts bound (Z=Y/X): 0.92

B39: GLS3000 R54A (antibody, name in Kabat numbering, V domains shown)
VH: B1 VH
VL: B1 VL with G24R, R59A
notes: one-arm IgG as m2
ratio of amounts bound (Z=Y/X): 0.69

B41: GLS3000 R54P (antibody, name in Kabat numbering, V domains shown)
VH: B1 VH
VL: B1 VL with G24R, R59P
notes: one-arm IgG as m2
ratio of amounts bound (Z=Y/X): 0.84

B42: GLS3000 R29A (antibody, name in Kabat numbering, V domains shown)
VH: B1 VH
VL: B1 VL with G24R, R34A
notes: one-arm IgG as m2
ratio of amounts bound (Z=Y/X): 0.63

B44: GLS3000 R29V (antibody, name in Kabat numbering, V domains shown)
VH: B1 VH
VL: B1 VL with G24R, R34V
notes: one-arm IgG as m2
ratio of amounts bound (Z=Y/X): 0.34

B45: GLS3000 S25E (antibody, name in Kabat numbering, V domains shown)
VH: B1 VH
VL: B1 VL with G24R, S25E
notes: one-arm IgG as m2
ratio of amounts bound (Z=Y/X): 0.21

B46: GLS3000 R24T (antibody, name in Kabat numbering, V domains shown)
VH: B1 VH
VL: B1 VL with G24T
notes: one-arm IgG as m2
ratio of amounts bound (Z=Y/X): 0.88

Second part, the binder after the results:

ratio of amounts bound (Z=Y/X): 0.79
B3: GLS3000 R54S (antibody, name in Kabat numbering, V domains shown)
VH: B1 VH
VL: B1 VL with G24R, R59S
notes: one-arm IgG as m2

ratio of amounts bound (Z=Y/X): 0.31
B4: GLS3000 R29P (antibody, name in Kabat numbering, V domains shown)
VH: B1 VH
VL: B1 VL with G24R, R34P
notes: one-arm IgG as m2

ratio of amounts bound (Z=Y/X): 0.67
B7: GLS3000 R54G (antibody, name in Kabat numbering, V domains shown)
VH: B1 VH
VL: B1 VL with G24R, R59G
notes: one-arm IgG as m2

ratio of amounts bound (Z=Y/X): 0.79
B8: GLS3000 S27aD (antibody, name in Kabat numbering, V domains shown)
VH: B1 VH
VL: B1 VL with G24R, S28D
notes: one-arm IgG as m2

ratio of amounts bound (Z=Y/X): 0.68
B9: GLS3000 R29S (antibody, name in Kabat numbering, V domains shown)
VH: B1 VH
VL: B1 VL with G24R, R34S
notes: one-arm IgG as m2

ratio of amounts bound (Z=Y/X): 1
B10: GLS3000 S27aI (antibody, name in Kabat numbering, V domains shown)
VH: B1 VH
VL: B1 VL with G24R, S28I
notes: one-arm IgG as m2

ratio of amounts bound (Z=Y/X): 0.78
B13: GLS3000 R54W (antibody, name in Kabat numbering, V domains shown)
VH: B1 VH
VL: B1 VL with G24R, R59W
notes: one-arm IgG as m2

ratio of amounts bound (Z=Y/X): 0.37
B15: GLS3000 R29I (antibody, name in Kabat numbering, V domains shown)
VH: B1 VH
VL: B1 VL with G24R, R34I
notes: one-arm IgG as m2

ratio of amounts bound (Z=Y/X): 0.58
B17: GLS3000 R54E (antibody, name in Kabat numbering, V domains shown)
VH: B1 VH
VL: B1 VL with G24R, R59E
notes: one-arm IgG as m2

ratio of amounts bound (Z=Y/X): 1.03
B19: GLS3000 S27aG (antibody, name in Kabat numbering, V domains shown)
VH: B1 VH
VL: B1 VL with G24R, S28G
notes: one-arm IgG as m2

ratio of amounts bound (Z=Y/X): 0.99
B24: GLS3000 S27aP (antibody, name in Kabat numbering, V domains shown)
VH: B1 VH
VL: B1 VL with G24R, S28P
notes: one-arm IgG as m2

ratio of amounts bound (Z=Y/X): 0.74
B36: GLS3000 S26E (antibody, name in Kabat numbering, V domains shown)
VH: B1 VH
VL: B1 VL with G24R, S26E
notes: one-arm IgG as m2

ratio of amounts bound (Z=Y/X): 1.1
B37: GLS3000 S27aN (antibody, name in Kabat numbering, V domains shown)
VH: B1 VH
VL: B1 VL with G24R, S28N
notes: one-arm IgG as m2

ratio of amounts bound (Z=Y/X): 1.03
B40: GLS3000 S27eA (antibody, name in Kabat numbering, V domains shown)
VH: B1 VH
VL: B1 VL with G24R, S32A
notes: one-arm IgG as m2

ratio of amounts bound (Z=Y/X): 0.69
B43: GLS3000 R29Y (antibody, name in Kabat numbering, V domains shown)
VH: B1 VH
VL: B1 VL with G24R, R34Y
notes: one-arm IgG as m2
